# Measured values: patent US20210139582A1 (published 2021)
# T1: C-terminus biotinylated monomeric human CD32a^H (FcγRIIa, histidine-131 variant), recombinant (human, UniProt P12318 34-218, limits assumed, C-terminus biotinylated (site-specific))
# T1 construct: Captured on neutravidin (ELISA plates or CM5 chips); Bought reagent; also called CD32a-H131
# T1 sequence (looked up): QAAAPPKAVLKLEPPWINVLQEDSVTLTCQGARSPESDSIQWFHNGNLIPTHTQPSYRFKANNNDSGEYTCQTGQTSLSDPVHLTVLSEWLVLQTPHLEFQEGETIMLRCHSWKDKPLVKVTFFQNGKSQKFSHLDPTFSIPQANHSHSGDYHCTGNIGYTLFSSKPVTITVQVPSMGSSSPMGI
# Columns and labels:
# [1] = target: T2, His-tagged soluble mouse FcRn (recombinant, insect cell produced) (mouse, UniProt Q61559 22-290); assay: method not stated; acidic pH
# T2 sequence (Q61559 22-290): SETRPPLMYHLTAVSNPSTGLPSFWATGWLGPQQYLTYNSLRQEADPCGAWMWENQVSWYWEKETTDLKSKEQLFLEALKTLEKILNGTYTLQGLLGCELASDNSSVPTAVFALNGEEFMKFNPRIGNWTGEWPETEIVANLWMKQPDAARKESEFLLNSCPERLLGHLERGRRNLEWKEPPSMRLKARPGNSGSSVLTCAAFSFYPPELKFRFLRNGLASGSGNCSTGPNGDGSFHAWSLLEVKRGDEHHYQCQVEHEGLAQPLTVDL
# [2] = target: T1, C-terminus biotinylated monomeric human …; assay: SPR, estimated steady state KD, monomeric IgG, pH 7.4
# [3] = target: T2, His-tagged soluble mouse FcRn …; assay: method not stated; neutral pH
Binder,Kd [1] [µM],Kd [2] [µM],Kd [3] [µM]
anti-NIP hIgG1-M252Y/S254T/T256E/H433K/N434F (hIgG1^MST/HN) (antibody) ASTKGPSVFPLAPSSKSTSGGTAALGCLVKDYFPEPVTVSWNSGALTSGVHTFPAVLQSSGLYSLSSVVTVPSSSLGTQTYICNVNHKPSNTKVDKKVEPKSCDKTHTCPPCPAPELLGGPSVFLFPPKPKDTLYITREPEVTCVVVDVSHEDPEVKFNWYVDGVEVHNAKTKPREEQYNSTYRVVSVLTVLHQDWLNGKEYKCKVSNKALPAPIEKTISKAKGQPREPQVYTLPPSRDELTKNQVSLTCLVKGFYPSDIAVEWESNGQPENNYKTTPPVLDSDGSFFLYSKLTVDKSRWQQGNVFSCSVMHEALKFHYTQKSLSLSPGK,0.0012,2.8,0.0074
anti-NIP hIgG1-I253A/H310A/H435A (hIgG1^IHH) (antibody) ASTKGPSVFPLAPSSKSTSGGTAALGCLVKDYFPEPVTVSWNSGALTSGVHTFPAVLQSSGLYSLSSVVTVPSSSLGTQTYICNVNHKPSNTKVDKKVEPKSCDKTHTCPPCPAPELLGGPSVFLFPPKPKDTLMASRTPEVTCVVVDVSHEDPEVKFNWYVDGVEVHNAKTKPREEQYNSTYRVVSVLTVLAQDWLNGKEYKCKVSNKALPAPIEKTISKAKGQPREPQVYTLPPSRDELTKNQVSLTCLVKGFYPSDIAVEWESNGQPENNYKTTPPVLDSDGSFFLYSKLTVDKSRWQQGNVFSCSVMHEALHNAYTQKSLSLSPGK,,4.8,
